For this test, the target named is Thermotoga maritima CheA, full-length (Thermotoga maritima) (UniProt Q56310). As to the kind of experiment: cross-linking + SEC-MALS. On the technique in general: SEC sorts molecules by how far they enter the pores of the column.

The values that follow come from PMC7790435.

Broadly, the stoichiometry N is the number of molecules, sites or subunits per partner or assembly. With “Thermotoga maritima CheA, full-length (from UniProt Q56310 1-671) (enzyme)”, the stoichiometry N is 2.

B1: Thermotoga maritima CheW (natural protein)
chain: KEFEVLSFEIDEQALAFDVDNIEMVIEKSDITPVPKSRHFVEGVINLRGRIIPVVNLAKILGISFDEQKMKSIIVARTKDVEVGFLVDRVLGVLRITENQLDLTNVSDKFGKKSKGLVKTDGRLIIYLDIDKIIEEITV
Consider B1, for which the stoichiometry N was found to be 2.
